Source: paper PMC7925540

Target: Vlp15/16 of B. miyamotoi HT31 (B. miyamotoi HT31)
Assay: ELISA; Vlp15/16 (5 µg/ml) immobilised, increasing amounts of plasminogen (0 to 20 µM); non-linear regression, one-site specific binding model

Q: Which Kd does the source give for Human glu-plasminogen (natural protein) here?
A: 354 nM
